Assay results from US11827701B2, “IL-6 binding molecules” (argenx BV, priority 2012, dated 2023).

Columns and labels:
[1] = tested on: induced psoriatic lesions; assay: Humanized mouse psoriasis xenograft model (epidermal ridge thickness); type: in vivo; conditions: mean±s.e.m.; BNX mice
Method: A mouse xenograft model was employed to evaluate the prophylactic efficacy of clone 68F2 on the development of induced psoriatic lesions. Specifically, BNX mice were transplanted with 5 mm diameter full-thickness skin biopsies from non-involved skin from psoriasis patients (1 per mouse). After 3 weeks, the transplants were injected with 0.5×10^6 activated PBMCs. Treatment of mice with clone 68F2, anti-TNF antibody (Remicade), or betamethasone dipropionate (positive control) was begun 1 day before the activated cells were injected into the transplants.
Treatment efficacy was determined by epidermal ridge thickness, as measured by light microscopy. Significance between groups was analyzed statistically using analysis of variance (ANOVA) followed by post-hoc Least Square Difference (LSD) tests to establish statistical significance differences between treatment groups. A value of p<0.05 denoted a significant difference between groups.

human IL-6 [2] = molecular target: T1, human IL-6 (Homo sapiens, UniProt P05231); assay: IL-6 neutralizing bioassay, B9 cell proliferation ([3H]thymidine); type: cell-based; conditions: B9 cells; relative to 68F2 average IC50
T1 construct: host or cells: IL-6 added from outside to murine 7TD1 hybridoma cells
T1 sequence (P05231 30-212): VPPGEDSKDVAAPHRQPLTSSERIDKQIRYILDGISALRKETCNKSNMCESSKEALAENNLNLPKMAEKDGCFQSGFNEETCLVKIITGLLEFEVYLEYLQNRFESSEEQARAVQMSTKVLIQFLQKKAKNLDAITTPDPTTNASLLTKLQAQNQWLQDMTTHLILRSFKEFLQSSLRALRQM
Method: The in vitro efficacy of clones 129D3, 68F2, 61H7, 133A9, 133H2, 133E5 and 132E7 were determined using a cell-based neutralizing bioassay using the B9 cell line, essentially as described in Helle et al. 1988, Eur. J. Immunol 18; 1535-1540. B9 cells are derived from the murine B cell hybridoma cell line B13.29, which require IL-6 for survival and proliferation and respond to very low concentrations of human IL-6. […] B9 cells were seeded in IL-6-free medium at 5000 cells/200 microl in flat-bottom wells in the presence of IL-6, with and without antibodies. Proliferation was measured by a [3H]thymidine pulse at 64-72 h.

RXF393 cells = assay: Renal cell cancer mouse xenograft model; type: in vivo
Method: The in vivo efficacy of clones 68F2 was investigated in a renal cell cancer mouse xenograft model. […] Briefly, RXF393 cells (2×10^6) were injected subcutaneously at both lateral sides of a nude mouse. Tumors were allowed to grow to a volume between of 50 en 300 mm^3, prior to antibody administration. 90% of the injected mice developed a tumor. 40 mice were split into 5 groups of 8 mice. Each group was received intraperatoneal injection of either PBS (control) or a specific dose of clone 68F2 (1, 3, 10, or 30 mg/kg). Tumor size and survival was monitored twice per week.

cynomolgus monkey IL-6 = molecular target: T2, cynomolgus monkey IL-6 (Macaca fascicularis, UniProt P79341); assay: Surface plasmon resonance (Biacore), cynomolgus monkey IL-6; type: binding; conditions: purified chain-shuffled Fabs
T2 construct: His
T2 sequence (P79341 28-212): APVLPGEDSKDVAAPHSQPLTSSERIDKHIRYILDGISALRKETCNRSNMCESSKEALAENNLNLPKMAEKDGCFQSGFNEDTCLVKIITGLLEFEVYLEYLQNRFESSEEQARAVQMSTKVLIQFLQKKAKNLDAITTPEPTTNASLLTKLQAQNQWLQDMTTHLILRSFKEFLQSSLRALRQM
Method: VL chain shuffling was used to improve the affinity of the Fabs 17F10, 18C7, 18C9, 18C11, 20A4, 29B11, 16D2 and 28A6. In this method, the heavy chain of these clones (as a VHCH1 fragment) was reintroduced into the primary phagemid-light chain library (see Example 1). Affinity selections were performed to select for chain shuffled Fabs with an improved affinity for IL-6. The binding kinetics of chain shuffled Fabs were evaluated by surface plasmon resonance (Biacore) using both bacterially and eukaryotically produced human IL-6, and cynomolgus monkey IL-6 (Tables 5-7). The VH and VL amino acid sequences of exemplary IL-6-specific Fabs selected by the VL chain shuffling method are set forth in Table 14 below.

IL-6 = assay: Serum amyloid A (SAA) mouse model, induction by injected IL-6; type: in vivo; set-up: SAA, Mean / SAA, Mouse1 / SAA, Mouse2 / SAA, Mouse3 / SAA, Mouse4 / SAA, Mouse5 / SAA, Mouse6: unit not given here; conditions: for SAA, Mouse1 / SAA, Mouse2 / SAA, Mouse3 / SAA, Mouse4 / SAA, Mouse5 / SAA, Mouse6 / SAA, Mean: 0.1 μg IL-6; for SAA, Mean: mean of 6 mice
Method: The in vivo efficacy of clones 68F2 and 61H7 was further investigated by measuring the ability of these antibodies to block serum amyloid A (SAA) induction in response to injected IL-6. General methods for performing this assay are set forth in WO2006/119115A2, which is hereby incorporated by reference in its entirety. […] Four hours after administration of the antibody, the mice were injected with 0.1 ug of IL-6. After a further 16 hours, blood was taken from the mice and the concentration of Serum Amyloid A was determined by ELISA. The dose responses are also graphically depicted in FIG. 13.

human IL-6 [3] = molecular target: T1, human IL-6; assay: IL-6 neutralizing bioassay, 7TD1 cell proliferation; type: cell-based; conditions: relative to 68F2
Method: The in vitro efficacy of clones 133E5, 133A9, 133H2, 111B1, 104C1, 129D3, 68F2, 61H7, were also determined using a cell-based neutralizing bioassay using the 7TD1 cell line, essentially as described in Van Snick et al. PNAS; 83, :9679 (1986), which is hereby incorporated by reference in its entirety. 7TD1 cells are a murine hybridoma cell line formed by fusion of the mouse myeloma cell line Sp2/0-Ag14 with spleen cells from a C57BL/6 mouse immunized with Escherichia coli lipopolysaccharides three days before fusion. The 7TD1 cell line is dependent on IL-6 for its growth and IL-6 withdrawal leads to cell death by apoptosis.
Briefly, 7TD1 cells (7.10E3) were incubated for 2-4 h in RPMI1640 medium+10% FCS before addition of IL-6 (75 pg/ml final concentration) in microtiter plates (200 ul final volume). The cells were incubated 3 days at 37C, before washing with PBS and addition of 60 ul of substrate solution (p-nitrophenyl-N-acetyl-β-D-glucosaminide (Sigma N-9376); 7.5 mM substrate in 0.05 M NaCitrate pH 5; 0.25 vol % triton X-100) for 4 h. The enzymatic reaction was stopped with 90 ul of stop solution (100 mM glycine+10 mM EDTA pH 10.4) and OD at 405 nm measured.
The VH and VL of the germlined versions of 68F2 were recloned in pUPE Heavy Chain and Light Chain expression vectors, respectively, for transient expression of full-length IgG1 antibodies. After transient expression in HEK293E cells, IgG1 antibodies were purified with protein A and quantified by measurement of OD280. Table 19 below summarizes the production levels of the germlined derivatives together with the levels of the 68F2 parental antibody. Potencies (in pM) were also measured in a 7TD1 based proliferation assay for each antibody.

In the case of `CCC(=O)OCC(=O)[C@@]1(OC(=O)CC)[C@@H](C)C[C@H]2[C@@H]3CCC4=CC(=O)C=C[C@]4(C)[C@@]3(F)[C@@H](O)C[C@@]21C` [betamethasone, betamethasone dipropionate], the epidermal ridge thickness [1] is reported as 83 μm.

Molecule Remicade: anti-TNF antibody has an epidermal ridge thickness [1] of 125 μm.

B1: 61H7 (12.8) (antibody, V domains shown)
VH: EVQLVESGGGLVQPGGSLRLSCAASGFTFSSYRMYWVRQPPGKGLEWVSAISAGGGSTYYGDSVKGRFTISRDNAKNTVYLQMNSLKPEDTAVYYCANRAGWGMGDYWGQGTQVTVSS
VL: QTVVTQEPSLSVSPGGTVTLTCGLSSGSVTASNYPGWFQQTPGQAPRALIYSTNDRHSGVPSRFSGSISGNKAALTITGAQPEDEADYYCALDIGDITEFGGGTHLTVLG
With B1 the Rel. Potency (human IL-6 [2]) was 0.4.

B2: 61H7 (A8.11) (antibody, V domains shown)
VH: EVQLVESGGGLVQPGGSLRLSCAASGFTFSSYRMYWVRQPPGKGLEWVSAISAGGGSTYYGDSVKGRFTISRDNAKNTVYLQMNSLKPEDTAVYYCANRAGWGMGDYWGQGTQVTVSS
VL: QTVVTQEPSLSVSPGGTVTLTCGLSSGSVTASNYPGWFQQTPGQAPRALIYSTNDRHSGVPSRFSGSISGNKAALTITGAQPEDEADYYCALDIGDITEFGGGTHLTVLG
In the case of B2, the Rel. Potency (human IL-6 [2]) is reported as 0.5.

B3: 68F2: anti-IL-6 clone from VL shuffling of 20A4; Fab and human IgG1 formats (antibody, listed as Lama glama, V domains shown)
VH: EVQLQESGPGLVKPSQTLSLTCTVSGGSITTRYYAWSWIRQPPGKGLEWMGVIDYDGDTYYSPSLKSRTSISWDTSKNQFSLQLSSVTPEDTAVYYCARDPDVVTGFHYDYWGQGTQVTVSS
VL: QSALTQPPLVSGTPGQTVTISCAGANNDIGTYAYVSWYQQLPGTAPKLLIYKVTTRASGIPSRFSGSKSGNTASLTISGLQSEDEADYYCASYRNFNNAVFGRGTHLTVLG
In the case of B3, the epidermal ridge thickness [1] is reported as 125 μm, the median survival time (RXF393 cells; 1 mg/kg) is reported as 21 days and the median survival time (RXF393 cells; 3 mg/kg) is reported as 21 days. The median survival time (RXF393 cells; 10 mg/kg) was 27.5 days, the median survival time (RXF393 cells; 30 mg/kg) was 21 days and the tumor outgrowth (RXF393 cells; 1, 3, 10, 30 mg/kg) was “effective at inhibiting tumor outgrowth in a dose-dependent manner with saturating effects at 10 mg/kg dose”. The “Koff HIS-cyIL-6” value (cynomolgus monkey IL-6) was 0.00075 s⁻¹, the “SAA, Mouse1” value (IL-6; Ab dose/mouse 0.31 μg) was 83 and the “SAA, Mouse2” value (IL-6; Ab dose/mouse 0.31 μg) was 129. The “SAA, Mouse3” value (IL-6; Ab dose/mouse 0.31 μg) was 116, the “SAA, Mouse4” value (IL-6; Ab dose/mouse 0.31 μg) was 132 and the “SAA, Mouse5” value (IL-6; Ab dose/mouse 0.31 μg) was 145. The “SAA, Mouse6” value (IL-6; Ab dose/mouse 0.31 μg) was 136, the “SAA, Mean” value (IL-6; Ab dose/mouse 0.31 μg) was 123.5 and the “SAA, Mouse1” value (IL-6; Ab dose/mouse 1.25 μg) was 69. The “SAA, Mouse2” value (IL-6; Ab dose/mouse 1.25 μg) was 67, the “SAA, Mouse3” value (IL-6; Ab dose/mouse 1.25 μg) was 81 and the “SAA, Mouse4” value (IL-6; Ab dose/mouse 1.25 μg) was 73. For the same molecule, the “SAA, Mouse5” value (IL-6; Ab dose/mouse 1.25 μg) was 47, the “SAA, Mouse6” value (IL-6; Ab dose/mouse 1.25 μg) was 83 and the “SAA, Mean” value (IL-6; Ab dose/mouse 1.25 μg) was 70.0. For the same molecule, the “SAA, Mouse1” value (IL-6; Ab dose/mouse 5 μg) was 76, the “SAA, Mouse2” value (IL-6; Ab dose/mouse 5 μg) was 38 and the “SAA, Mouse3” value (IL-6; Ab dose/mouse 5 μg) was 46. For the same molecule, the “SAA, Mouse4” value (IL-6; Ab dose/mouse 5 μg) was 63, the “SAA, Mouse5” value (IL-6; Ab dose/mouse 5 μg) was 43 and the “SAA, Mouse6” value (IL-6; Ab dose/mouse 5 μg) was 40. For the same molecule, the “SAA, Mean” value (IL-6; Ab dose/mouse 5 μg) was 51.0 and the “in vivo efficacy (block of SAA induction)” value (IL-6; Balb/c mice, i.v., 0.1 ug IL-6) was “in vivo efficacy at least equal to the high potency benchmark controls GL18 and CNTO136”.

B4: 68F2 (Large batch) (antibody, V domains shown)
VH: EVQLQESGPGLVKPSQTLSLTCTVSGGSITTRYYAWSWIRQPPGKGLEWMGVIDYDGDTYYSPSLKSRTSISWDTSKNQFSLQLSSVTPEDTAVYYCARDPDVVTGFHYDYWGQGTQVTVSS
VL: QSALTQPPLVSGTPGQTVTISCAGANNDIGTYAYVSWYQQLPGTAPKLLIYKVTTRASGIPSRFSGSKSGNTASLTISGLQSEDEADYYCASYRNFNNAVFGRGTHLTVLG
For B4, the “Rel. Potency” value (human IL-6 [3]; Exp 29.06 (7TD1)) was 0.43.

B5: 68F2 (12.9) (antibody, V domains shown)
VH: EVQLQESGPGLVKPSQTLSLTCTVSGGSITTRYYAWSWIRQPPGKGLEWMGVIDYDGDTYYSPSLKSRTSISWDTSKNQFSLQLSSVTPEDTAVYYCARDPDVVTGFHYDYWGQGTQVTVSS
VL: QSALTQPPLVSGTPGQTVTISCAGANNDIGTYAYVSWYQQLPGTAPKLLIYKVTTRASGIPSRFSGSKSGNTASLTISGLQSEDEADYYCASYRNFNNAVFGRGTHLTVLG
B5 showed a Rel. Potency (human IL-6 [2]) of 0.8.

B6: 68F2 (#12.9) (antibody, V domains shown)
VH: EVQLQESGPGLVKPSQTLSLTCTVSGGSITTRYYAWSWIRQPPGKGLEWMGVIDYDGDTYYSPSLKSRTSISWDTSKNQFSLQLSSVTPEDTAVYYCARDPDVVTGFHYDYWGQGTQVTVSS
VL: QSALTQPPLVSGTPGQTVTISCAGANNDIGTYAYVSWYQQLPGTAPKLLIYKVTTRASGIPSRFSGSKSGNTASLTISGLQSEDEADYYCASYRNFNNAVFGRGTHLTVLG
B6 was tested, and the “Rel. Potency” value (human IL-6 [3]; Exp 7.07 (7TD1)) was 0.93 and the “Rel. Potency” value (human IL-6 [3]; Exp 29.06 (7TD1)) was 1.08.

B7: 129F2 (17.06) (antibody, V domains shown)
VH: EVQLQESGPGLVKPSQTLSLTCTVSGGSITSRYYAWSWIRQPPGKGLEWIGVIDYDGDTYYSPSLKSRVTISWDTSKNQFSLKLSSVTAEDTAVYYCARDPDVVTGFHYDYWGQGTMVTVSS
VL: QSALTQPPSVSGTPGQTVTISCAGANNDIGTYAYVSWYQQLPGTAPKLMIYKVTTRASGIPDRFSGSKSGNTASLTISGLQSEDEADYYCASYRNFNNAVFGGGTKLTVL
For B7, the “Rel. Potency” value (human IL-6 [3]; Exp 22.06 (7TD1)) was 1.14.

B8: 68F2 (A8.10) (antibody, V domains shown)
VH: EVQLQESGPGLVKPSQTLSLTCTVSGGSITTRYYAWSWIRQPPGKGLEWMGVIDYDGDTYYSPSLKSRTSISWDTSKNQFSLQLSSVTPEDTAVYYCARDPDVVTGFHYDYWGQGTQVTVSS
VL: QSALTQPPLVSGTPGQTVTISCAGANNDIGTYAYVSWYQQLPGTAPKLLIYKVTTRASGIPSRFSGSKSGNTASLTISGLQSEDEADYYCASYRNFNNAVFGRGTHLTVLG
In the case of B8, the Rel. Potency (human IL-6 [2]) is reported as 1.3.
